± gives the uncertainty stated by the source.

The nature of the data set: amyloid nucleation score (Sup35N fusion, yeast selection) (log enrichment); library NNK1; higher = more nucleation; inactive = no reads after selection. A digest of the protocol:
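The nucleation score, computed with DiMSum, is the log enrichment of output over input reads, centred on the mode score of non-aggregating sequences. Sequences with under 100 input reads were dropped. Reads were generated by Illumina sequencing of plasmid inserts from psi-negative yeast with Sup35N fused to peptides of 20 random codons, induced with 100 μM copper sulfate for 24 hours and grown 7 days at 30°C on medium lacking adenine and uracil.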
For the substance LSCSFDESW, the amyloid nucleation score worked out at 0.024 ± 0.24.

Turning to VGYLFRSTSFV, the amyloid nucleation score entry is “inactive”.

The substance DSGLFSKVVMHDNPSSVDKL registered an amyloid nucleation score of -0.123 ± 0.64. Then WVTSSAFEE, with 0.277 ± 0.7; and VEYVQYFWSSGGVYGSDTGW, with 0.024 ± 0.76. In turn, RPSPEGY displayed an amyloid nucleation score of 1.37 ± 0.84. Next, DWFLTLAKVYSLNGQVFRMR: “inactive”. RIFLLVTHVACAMPLFHKTR had an amyloid nucleation score of 0.83 ± 0.75. Regarding ISCSVKILRCLTCMLFSSVV, the amyloid nucleation score was -0.8 ± 1.3. SDRQVSSSRTYKHSTTSLGC: the amyloid nucleation score entry is “inactive”.

TVWKSLLHNSAAAGV: the amyloid nucleation score was 0.109 ± 1.6. AFRVS had an amyloid nucleation score of -0.513 ± 0.63. In turn, PQLTRSGQ registered an amyloid nucleation score of -0.14 ± 0.28. Next, ATSPLCCRH: 0.022 ± 0.28.

On to VCKITDLAARCHSREFWESR, for which the amyloid nucleation score stood at 0.253 ± 0.25. In turn, FIQNGV came in with an amyloid nucleation score of 0.659 ± 0.79. In the case of LPSGLRCRTSRMDVAKLAK, the amyloid nucleation score is 0.441 ± 0.47. QLEFVWLILTYHEGHYRIGK: the amyloid nucleation score result was “inactive”. Next, PNTSEWTDWCRVLVEWGQGS: 0.394 ± 0.18. Turning to LKAGFM, the amyloid nucleation score was -0.102 ± 0.28. As for INHVMHGMEVRRGVNGRWMY, the amyloid nucleation score stood at 0.312 ± 1.1. As for FLPMSLGWVHKQLIFSPRWY, the amyloid nucleation score is 1 ± 0.66. Next, YLFTYRRVTWGSTLQS: 1.65 ± 0.48; LKWSSGHGKIGSNVWRRVYC: 0.42 ± 1.2; SVVLMLKYRYMHLTGLWSWS: 0.16 ± 0.46. LNLAKPLFSHRLRRFKCSYF registered an amyloid nucleation score of 2.08 ± 0.23. Then YMGHDC, with 0.011 ± 0.21. For WGFESFSAWATMCERSRWHR, the amyloid nucleation score stood at 0.428 ± 0.55. Turning to VGSNYVCVI, the amyloid nucleation score was -0.545 ± 0.5. For GGIVLDTTHRVGYGRTSPCV, the amyloid nucleation score worked out at 0.289 ± 1.2. The substance SCTCVQHPDGSYAFEIGAAN registered an amyloid nucleation score of 0.009 ± 0.96.

Turning to YNSRRAWDACCFGLVPLWEC, the amyloid nucleation score stood at 2.08 ± 0.3. Substance PIIVDRCCFDYIRRVNVLYN came in with an amyloid nucleation score of 0.677 ± 0.48.

As for FGAVVADGMKLFSVSFS, the amyloid nucleation score is -0.711 ± 0.52. Then ATMYICTRHSTAYGVFHSFV, with 0.105 ± 1.2; and LCAMIPAVGRYWSCVVGHSV, with -0.013 ± 1.6.

On to SNREFLQSVVLW, for which the amyloid nucleation score turned out to be 0.209 ± 0.48.

Consider LIVLWNCSADPDGFMWCSKC, for which the amyloid nucleation score entry was “inactive”.

As to VGSSVPGCRAGVFGLLDRCI, the amyloid nucleation score is -0.489 ± 1.7. Next, GHISIMVHYLFVSTHSSQED: 4.46 ± 0.13; LFVMSWYNYAVKFVAINTIT: -0.031 ± 0.24. Regarding CRGNDKVLPKIGATNCWLST, the amyloid nucleation score entry was “inactive”.

Take HIQLIYVTIVLESRLSWWRI: the amyloid nucleation score is 0.934 ± 0.53. The substance ANTLRKMNLLSELVLNLLTG came in with an amyloid nucleation score of 3.3 ± 0.14. Substance SSGQLSNKYC displayed an amyloid nucleation score of 0.786 ± 0.46. YRSSGWRNTSSRAVLCCLDE returned an amyloid nucleation score of -0.356 ± 0.38. As for TSRFPKASKSRLTRDCP, the amyloid nucleation score is 0.323 ± 0.35. For WSKCNVRMCWH, the amyloid nucleation score is -0.122 ± 0.64.

The substance FSVWGLRLTRARMQTERVLL had an amyloid nucleation score of 0.86 ± 0.59. Substance RLPWLRAQNANLVLLLVNRR displayed an amyloid nucleation score of 4.9 ± 0.074.

Regarding WYGDSPECEV, the amyloid nucleation score turned out to be 0.141 ± 0.73. Then ICLLLCLVWDGCIATISNGL, with -1.39 ± 2.1; and NTLKNCCLYIAVRCNAP, with -0.974 ± 1.2; and NWTIHVDNSGHVIRINTHYW, with 6.72 ± 0.074. Next, SPEFEEAWDGIKFYCKGANP: -1.09 ± 1.2; QIYASKWPYEIEFKNFMRVA: 0.247 ± 0.42. Then VRHGRSYSFLRQGDFMWCGS, with -0.306 ± 0.57.
